The text below walks through data of PMC3877120, “Pentavalent Single-Domain Antibodies Reduce Campylobacter jejuni Motility and Colonization in Chickens” (PLoS ONE, 2013).

Test [1] addresses T1, C. jejuni 81–176 flagella (Campylobacter jejuni strain 81–176, biotin (Sulfo-NHS-LC-LC-biotin), in the SPR only | biotin (Sulfo-NHS-LC-LC-biotin), in the SPR only).
T1 construct: flagellin FlaA of C. jejuni strain 81–176; flagellin FlaB of C. jejuni strain 81–176; also called flagellin; flagella protein; source: purified from C. jejuni 81–176 (sheared, ultracentrifugation, 1% SDS wash); also on formalin-fixed C. jejuni 81–176 cells
T1 chain 1: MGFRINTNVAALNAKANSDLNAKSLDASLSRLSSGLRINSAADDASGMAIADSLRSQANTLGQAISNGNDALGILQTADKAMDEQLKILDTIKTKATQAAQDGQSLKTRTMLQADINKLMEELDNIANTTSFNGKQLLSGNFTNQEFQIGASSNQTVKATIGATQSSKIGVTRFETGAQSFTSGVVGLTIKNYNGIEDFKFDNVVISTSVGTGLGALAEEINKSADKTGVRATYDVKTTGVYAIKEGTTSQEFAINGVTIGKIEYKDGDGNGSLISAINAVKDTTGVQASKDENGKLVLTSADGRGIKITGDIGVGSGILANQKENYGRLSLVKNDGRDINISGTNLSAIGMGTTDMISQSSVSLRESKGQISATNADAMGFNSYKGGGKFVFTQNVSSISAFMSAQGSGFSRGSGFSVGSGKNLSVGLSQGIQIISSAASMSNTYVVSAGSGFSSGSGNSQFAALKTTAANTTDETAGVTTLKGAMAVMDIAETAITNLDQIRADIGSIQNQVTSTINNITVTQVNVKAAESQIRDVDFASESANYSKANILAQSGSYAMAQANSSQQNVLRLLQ
T1 chain 2: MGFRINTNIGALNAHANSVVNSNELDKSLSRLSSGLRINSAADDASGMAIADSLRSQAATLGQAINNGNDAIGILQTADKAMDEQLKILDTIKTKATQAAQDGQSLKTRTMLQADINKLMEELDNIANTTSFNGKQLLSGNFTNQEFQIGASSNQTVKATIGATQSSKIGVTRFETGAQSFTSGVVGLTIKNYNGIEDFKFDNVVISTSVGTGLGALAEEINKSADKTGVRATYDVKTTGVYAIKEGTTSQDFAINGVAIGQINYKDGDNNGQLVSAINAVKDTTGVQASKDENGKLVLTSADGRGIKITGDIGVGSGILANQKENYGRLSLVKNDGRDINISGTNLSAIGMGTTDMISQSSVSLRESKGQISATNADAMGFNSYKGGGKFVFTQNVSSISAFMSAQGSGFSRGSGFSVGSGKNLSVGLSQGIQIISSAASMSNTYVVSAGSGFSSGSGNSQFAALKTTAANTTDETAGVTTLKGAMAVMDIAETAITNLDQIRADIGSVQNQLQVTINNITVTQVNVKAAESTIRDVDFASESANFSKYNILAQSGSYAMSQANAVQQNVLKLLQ
Put plainly: ELISA; C. jejuni 81–176 flagella coated on Maxisorp plates (5 µg/ml in PBS); monomeric or pentameric VHH at 10 to 0.0001 µg/ml, 1 h at 37°C; detected with anti-His6-HRP; concentration of 50% maximum binding. As to conditions: both partners purified. (In an ELISA, binding on a coated surface is turned into a signal by an enzyme label.)

Test [2] addresses T1, C. jejuni 81–176 flagella. Put plainly: SPR; Biacore 3000; biotinylated flagella (700–900 RU) captured on an SA sensor chip; VHHs injected at 40 µl/min; 25°C; 10 mM HEPES pH 7.4, 150 mM NaCl, 3 mM EDTA, 0.005% P20; 1:1 interaction model. As to conditions: both partners purified. On the technique in general: In SPR one partner is held on a chip, and binding of the other changes the refractive index at the surface.

B1: FlagV1M (monomeric flagella-specific VHH FlagV1) (VHH)
VHH: QVKLEESGGGLVQAGGSRRLSCATSGLTFRNFHMAWFRQVAGKEREVVAAISWSRDRQYYPDPVKGRFTITRDNAKNTVYLQMNSLKPEDTAVYYCAARTASASGDWYKGSYQYWGQGTQVTVSS
notes: llama VHH from an immune phage display library; also called FlagV1 VHH; source: E. coli TG1, periplasm, purified (IMAC; Superdex 75 before SPR)
What is called EC50 is the concentration giving half of the maximal effect. Lower therefore signals higher potency in that assay. In general, Kd refers to the equilibrium constant for the complex coming apart. Usually koff stands for the first-order rate constant of dissociation. High values mean a short-lived complex, low ones a long-lived complex. Usually kon stands for the rate constant with which the complex forms. Low readings indicate slow association, high ones fast association. In turn, B1 yielded a half-maximal effective concentration (EC50) in test [1] of 15.6 nM. In test [2], this molecule yielded an equilibrium dissociation constant (Kd) of 20 nM, a koff of 0.002 s⁻¹ and a kon of 100000 M⁻¹ s⁻¹.
